Measurements reported in patent US20220242962A1 (APTEVO RESEARCH AND DEVELOPMENT, published 2022).
Positions count from the first letter of the chain named. Numbers in names are those of the source. Where two headings read alike, the source gives them in different places. Blank lines part the entries; values can stand above or below the binder they belong to.

Tests used:
Full-length Human OX40 [1] = target: T1, Full-length Human OX40 (human, UniProt P43489 29-277); experiment: cell-based or functional assay
T1 sequence: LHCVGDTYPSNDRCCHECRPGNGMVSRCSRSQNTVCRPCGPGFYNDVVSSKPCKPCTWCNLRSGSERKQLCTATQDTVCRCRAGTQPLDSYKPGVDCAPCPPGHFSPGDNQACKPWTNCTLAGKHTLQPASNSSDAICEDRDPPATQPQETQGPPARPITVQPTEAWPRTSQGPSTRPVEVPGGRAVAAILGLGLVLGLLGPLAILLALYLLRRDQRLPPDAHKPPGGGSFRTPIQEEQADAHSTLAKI

Full-length Human 4-1BB [2] = target: T2, Full-length Human 4-1BB (human, UniProt Q07011 24-255); experiment: cell-based or functional assay
Full-length Human OX40 [3] = target: T1, Full-length Human OX40; experiment: flow cytometry, CHO cells expressing human OX40
Method: (§1) FIGS. 12A-12D show the binding of anti-4-1BB x anti-OX40 constructs, with additional humanization in 4-1BB and altered orientations of binding domains, human (12A) or cynomolgus (12C) 4-1BB-expressing Jurkat cells or human (12B) or cynomolgus (12D) OX40-expressing CHOK1SV cells. Serial dilutions of ADAPTIR™ constructs were incubated with transfected cells and subsequently labelled with a fluorescently-conjugated goat-a-human Fc secondary antibody. […] (See Example 19.)
(§2) Binding studies were performed using the flow cytometry-based staining procedures described above.

Human OX40 ECD-AFH [4] = target: T3, Human OX40 ECD-AFH (human); experiment: SPR, construct captured, monomeric ECD as analyte
T3 construct: ECD'; entry includes the C-terminal tags; also called OXF003; Human OX40 ECD-avi-flag-his
T3 chain: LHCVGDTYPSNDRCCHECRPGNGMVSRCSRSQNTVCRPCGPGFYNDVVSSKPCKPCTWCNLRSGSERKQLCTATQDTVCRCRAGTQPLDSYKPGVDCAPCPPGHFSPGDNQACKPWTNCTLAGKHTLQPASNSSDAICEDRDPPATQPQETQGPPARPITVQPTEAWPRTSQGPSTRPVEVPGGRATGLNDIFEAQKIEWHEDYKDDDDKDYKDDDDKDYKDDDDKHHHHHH
Method: (§3) Mouse anti-human IgG (GE, BR-1008-39) at 25 μg/ml in 10 mM sodium acetate pH 5.0 was immobilized at a density of ˜10,000 response units (RU) onto each flow cell of a CM5 research-grade sensor chip (GE) by standard amine coupling chemistry. Each binding protein at approximately 100 nM in HBS-EP+ with 0.2% BSA buffer was captured in a flow cell with the immobilized anti-human IgG at a flow rate of 10 μL/min for 20 seconds, leaving one flow cell surface unmodified as the reference. Using a single-cycle kinetics mode, five different concentrations of ECD were sequentially injected through each flow cell at 30 μL/min for 300 seconds followed by a 600 second dissociation period. Regeneration was achieved by injection of 3 M MgCl₂ at a flow rate of 30 μL/min for 30 seconds followed by HBS-EP+ with 0.2% BSA buffer stabilization for 1 min.
(§4) Sensorgrams obtained from kinetic SPR measurements were analyzed by the double subtraction method. The signal from the reference flow cell was subtracted from the analyte binding response obtained from flow cells with immobilized or captured ligands. Buffer reference responses were then averaged from multiple injections. The averaged buffer reference responses were then subtracted from analyte binding responses, and the final double-referenced data were analyzed with Biacore T200 Evaluation software (2.0, GE), globally fitting data to derive kinetic parameters. All sensorgrams were fitted using a simple one-to-one binding model.
(§5) Protein was produced by transient expression, purified by ProA chromatography and prep SEC.

Human 4-1BB ECD-AFH [5] = target: T4, Human 4-1BB ECD-AFH (human); experiment: SPR, construct captured, monomeric ECD as analyte
T4 construct: entry includes the tags; also called FOB003; HUMAN CD137 ECD-AVI-FLAG-HIS
Method: as §3, §4, §5

Full-length Human 4-1BB [6] = target: T2, Full-length Human 4-1BB; experiment: flow cytometry, Jurkat cells expressing human 4-1BB
Method: as §1, §2

Full-length Cyno 4-1BB [7] = target: T5, Full-length Cyno 4-1BB (cynomolgus monkey, UniProt Q07011 24-255 (human entry)); experiment: flow cytometry on Jurkat cells transfected with cynomolgus 4-1BB, goat anti-human Fc secondary antibody, MFI (Mean)
T5 construct: on Jurkat or CHO cells; also called FOB006; cynomolgus 4-1BB
T5 chain: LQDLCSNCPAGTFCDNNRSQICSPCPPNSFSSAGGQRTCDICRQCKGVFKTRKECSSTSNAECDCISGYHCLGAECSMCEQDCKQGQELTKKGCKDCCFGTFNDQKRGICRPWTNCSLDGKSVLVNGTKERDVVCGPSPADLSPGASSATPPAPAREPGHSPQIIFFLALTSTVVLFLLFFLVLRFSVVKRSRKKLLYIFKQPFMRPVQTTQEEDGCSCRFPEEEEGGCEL
Method: as §1, §2

Full-length Cyno OX40 [8] = target: T6, Full-length Cyno OX40 (cynomolgus monkey, UniProt P43489 29-277 (human entry)); experiment: flow cytometry on CHOK1SV cells transfected with cynomolgus OX40, goat anti-human Fc secondary antibody, MFI (Mean)
T6 construct: on CHO-K1SV cells; also called OXF004; cynomolgus OX40
T6 chain: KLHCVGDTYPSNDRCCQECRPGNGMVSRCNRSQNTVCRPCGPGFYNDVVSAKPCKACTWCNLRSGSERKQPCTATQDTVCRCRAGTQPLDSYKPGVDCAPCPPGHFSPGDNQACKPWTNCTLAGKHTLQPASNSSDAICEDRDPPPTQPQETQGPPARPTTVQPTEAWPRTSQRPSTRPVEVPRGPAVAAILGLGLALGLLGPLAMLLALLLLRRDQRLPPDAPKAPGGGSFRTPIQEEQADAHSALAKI
Method: as §1, §2

Full-length Human OX40 [9] = target: T1, Full-length Human OX40; experiment: cell-based or functional assay; remark: listed apart in the source
Full-length Human 4-1BB [10] = target: T2, Full-length Human 4-1BB; experiment: cell-based or functional assay; remark: listed apart in the source
Human OX40 ECD-AFH [11] = target: T3, Human OX40 ECD-AFH; experiment: SPR (Biacore 8K), construct captured, monovalent ECD
Method: as §3, §4
(§6) Using the BIACORE 8K SPR system, the affinity of these constructs for human and cyno 4-1BB, and human and cyno OX40 ECD, were determined using the methods described above. Monovalent binding affinity was determined by capturing the ADAPTIR™ bispecific construct on the chip and injecting monovalent ECD of the target at multiple concentrations.

Cyno OX40-AFH = target: T7, Cyno OX40-AFH (cynomolgus monkey); experiment: as above
T7 construct: entry includes the tags; also called OXF005; cyno OX40 ECD
T7 chain: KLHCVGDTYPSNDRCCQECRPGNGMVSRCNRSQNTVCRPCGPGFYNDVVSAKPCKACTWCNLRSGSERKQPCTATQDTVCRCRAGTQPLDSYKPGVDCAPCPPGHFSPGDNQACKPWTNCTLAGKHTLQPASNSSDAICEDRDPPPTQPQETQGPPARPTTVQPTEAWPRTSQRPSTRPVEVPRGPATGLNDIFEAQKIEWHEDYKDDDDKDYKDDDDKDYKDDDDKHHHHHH
Method: as §3, §4, §6

Human 4-1BB ECD-AFH [12] = target: T4, Human 4-1BB ECD-AFH; experiment: as above
Method: as §3, §4, §6

Cyno 4-1BB ECD-AFH = target: T8, Cyno 4-1BB ECD-AFH (cynomolgus monkey); experiment: as above
T8 construct: entry includes the tags; also called FOB004; Cyno CD137 ECD-avi-flag-his
T8 chain: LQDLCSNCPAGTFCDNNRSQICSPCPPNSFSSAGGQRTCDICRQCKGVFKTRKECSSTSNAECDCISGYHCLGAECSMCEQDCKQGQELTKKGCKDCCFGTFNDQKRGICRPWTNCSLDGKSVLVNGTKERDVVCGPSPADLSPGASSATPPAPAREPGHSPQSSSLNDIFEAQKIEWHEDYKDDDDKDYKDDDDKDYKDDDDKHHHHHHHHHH
Method: as §3, §4, §6

Full-length Cyno 4-1BB [13] = target: T5, Full-length Cyno 4-1BB; experiment: flow cytometry on Jurkat cells transfected with cynomolgus 4-1BB, goat anti-human Fc secondary antibody, MFI (Mean)
Method: (§7) Serial dilutions of ADAPTIR™ constructs were incubated with transfected target cells and subsequently labelled with a fluorescently-conjugated goat-a-human Fc secondary antibody. […] (See Example 25.)

Full-length Cyno OX40 [14] = target: T6, Full-length Cyno OX40; experiment: flow cytometry on CHOK1SV cells transfected with cynomolgus OX40, goat anti-human Fc secondary antibody, MFI (Mean)
Method: as §7

OX40 Reporter Assay EC50 (Full-length Human OX40 [1]): 0.01 nM
OX40 Reporter Assay Max induction (Full-length Human OX40 [1]): 1.93e+06
4-1BB Reporter Assay EC50 (Full-length Human 4-1BB [2]): 0.017 nM
4-1BB Reporter Assay Max induction (Full-length Human 4-1BB [2]): 6.65e+06
EC50 (Full-length Human OX40 [3]): 0.36 nM
max MFI (Full-length Human OX40 [3]): 10400 MFI
Kd (Human OX40 ECD-AFH [4]): 0.4 nM
koff (Human OX40 ECD-AFH [4]): 0.00028 s⁻¹
kon (Human OX40 ECD-AFH [4]): 770000 M⁻¹ s⁻¹
Kd (Human 4-1BB ECD-AFH [5]): 14 nM
koff (Human 4-1BB ECD-AFH [5]): 0.0046 s⁻¹
kon (Human 4-1BB ECD-AFH [5]): 330000 M⁻¹ s⁻¹
EC50 (Full-length Human 4-1BB [6]): 0.25 nM
max MFI (Full-length Human 4-1BB [6]): 4900 MFI
EC50 (read off the curve) (Full-length Cyno 4-1BB [7]): ~0.3 nM
EC50 (read off the curve) (Full-length Cyno OX40 [8]): ~0.8 nM
B1: FXX01099 (bispecific antibody)
chain: EVQLVQSGAEVKKPGASVKVSCKASGYTFTSYWMNWVRQAPGQGLEWMGNIYPSGGSTNYAQKFQGRVTMTVDTSTSTVYMELSSLRSEDTAVYYCASFSDGYYAYAMDYWGQGTLVTVSSGGGGSGGGGSGGGGSGGGGSEIVMTQSPATLSLSPGERATLSCRASQSVSSYLNWYQQKPGQAPRLLIYYASRRHTGIPARFSGSGSGTDFTLTISSLQPEDFAVYYCQQGYNLPYTFGQGTKVEIKEPKSSDKTHTCPPCPAPPAAAPSVFLFPPKPKDTLMISRTPEVTCVVVDVSHEDPEVKFNWYVDGVEVHNAKTKPREEQYNSTYRVVSVLTVLHQDWLNGKEYKCAVSNKALPAPIEKTISKAKGQPREPQVYTLPPSRDELTKNQVSLTCLVKGFYPSDIAVEWESNGQPENNYKTTPPVLDSDGSFFLYSKLTVDKSRWQQGNVFSCSVMHEALHNHYTQKSLSLSPGGGGSPSSYVLTQPPSVSVAPGKTARITCGGNNIGSKSVNWFQQKPGQAPVLVVYDDSGRPSGIPERFSGSTSGNTATLTISRVEAGDEADYYCQVWDSSSDHVVFGGGTKLTVLGGGGSGGGGSGGGGSGGGGSQVQLVESGGGVVQPGRSLRLSCAASGFTLSYYGMHWVRQAPGKGLEWVAAISHDGSDKYYADSVKGRFTISRDNSKNTLYLQMNSLRAEDTAVYYCSNDQFDPWGQGTLVTVSSR
notes: ADAPTIR anti-4-1BB (HL) x anti-OX40 with Q17K; also called FX01099

OX40 Reporter Assay EC50 (Full-length Human OX40 [9]): 0.016 nM
OX40 Reporter Assay Max induction (Full-length Human OX40 [9]): 6.19e+06
4-1BB Reporter Assay EC50 (Full-length Human 4-1BB [10]): 0.016 nM
4-1BB Reporter Assay Max induction (Full-length Human 4-1BB [10]): 1.43e+06
Kd (Human OX40 ECD-AFH [11]): 0.1 nM
koff (Human OX40 ECD-AFH [11]): 0.00013 s⁻¹
kon (Human OX40 ECD-AFH [11]): 1.2e+06 M⁻¹ s⁻¹
Kd (Cyno OX40-AFH): 0.2 nM
koff (Cyno OX40-AFH): 0.00018 s⁻¹
kon (Cyno OX40-AFH): 1e+06 M⁻¹ s⁻¹
Kd (Human 4-1BB ECD-AFH [12]): 9 nM
koff (Human 4-1BB ECD-AFH [12]): 0.0036 s⁻¹
kon (Human 4-1BB ECD-AFH [12]): 390000 M⁻¹ s⁻¹
Kd (Cyno 4-1BB ECD-AFH): 30 nM
koff (Cyno 4-1BB ECD-AFH): 0.013 s⁻¹
kon (Cyno 4-1BB ECD-AFH): 420000 M⁻¹ s⁻¹
EC50 (read off the curve) (Full-length Cyno 4-1BB [13]): ~0.3 nM
EC50 (read off the curve) (Full-length Cyno OX40 [14]): 1 to 2 nM
B2: FXX01121 (bispecific antibody)
chain: B1 chain with E543K, T690R
notes: ADAPTIR anti-4-1BB x anti-OX40, pI variant
